Measurements from patent US20040018971A1.

Experiments:
HLA-A*2401 (human) [1] = assay: inhibition of 125I probe peptide binding to purified HLA; IC50 standard/IC50 test
[2] = biological target: HLA-DR3 (DRB1*0301), purified HLA class II molecule (human); assay: competition with 125I-labelled probe peptide, purified HLA-DR
[3] = biological target: HLA-A*2401 (purified HLA class I molecule) (human); assay: competition with 125I-labelled standard peptide for purified HLA, gel filtration; settings: scale: ratio
HLA-A*2401 (human) [4] = assay: as above
[5] = biological target: HLA-A*2401 (purified HLA class I molecule) (human); assay: competition with 125I-labelled probe peptide for purified HLA, gel filtration; settings: scale: ratio

| Substance | relative binding ratio (HLA-A*2401 (human) [1]) | relative binding ratio (ratio (IC50 standard / IC50 test)) [2] | other results |
| --- | --- | --- | --- |
| HER2/neu 780-790 (peptide) | 0.032 |  |  |
| HER2/neu DR supermotif exemplary 15-mer … (position 8) (peptide) |  | 0.001 |  |
| HER2/neu DR supermotif exemplary 15-mer … (position 783) (peptide) |  | 0.0062 |  |
| HER2/neu DR supermotif exemplary 15-mer … (position 912) (peptide) |  | 0.001 |  |
| HER2/neu peptide, position 172, 10 amino acids |  |  | relative binding ratio [3]: 0.0022 |
| HER2/neu peptide, position 780, 11 amino acids |  |  | relative binding ratio (IC50 of standard peptide / IC50 of test peptide) (ratio to standard peptide) (HLA-A*2401 (human) [4]): 0.032 |
| HER2/neu peptide, position 952, 10 amino acids |  |  | relative binding ratio [5]: 0.0019 |

More lines, main results first:

| relative binding ratio (HLA-A*2401 (human) [1]) | relative binding ratio (ratio (IC50 standard / IC50 test)) [2] | Substance | other results |
| --- | --- | --- | --- |
| 0.0022 |  | HER2/neu 172-181 (from UniProt P04626 172-181) (peptide) |  |
| 0.0002 |  | HER2/neu 705-714 (from UniProt P04626 705-714) (peptide) |  |
| -0.0003 |  | HER2/neu 705-715 (from UniProt P04626 705-715) (peptide) |  |
|  | 0.0021 | HER2/neu DR supermotif exemplary 15-mer … (position 666) (peptide) |  |
